Laboratory results as given in the DeepSol protein solubility set.

Assay: soluble on expression in E. coli; label from the status in PepcDB or PDB records

Sequence	soluble on expression in E. coli
MSSSRHFSIPYDEDVVHSVILENTPSPPPKPPRGILRKEAPMKPQRSALKIEPARDDDKENNSQPQARSQFKAKDTMEQMQSYFKRSISVLRKSEEHFTGAEAADILTAYIETHRNEFPRDNIGRSNAVKLLEIWLESNTIQSVESHQKKFVDSERTFYRLGGDSESLYIVNTPIASRNHDDSASVSRSESSRRSNSIKRLFSPFVRRNRSNSRGRDKDKDNLKDGSSTNLKSTWSLFSSSSEKNEKKLKKAEQQLIKEEEAEVYELSLFHLLSLIDVEFLEDVALPVQDSKNNASFLSSILGKVGLGASEERLDPHQEDHMDLLIETHPLIRDASQWFQMARCCAPLLYFEAKPVASNHKTSHNEQLYLWCRAALDAVKNRLEKMTQNGSSPLFPSEFAPLLTKIAQQLINDMDSGEKLSTAVMYIFLMVPHPIRKTIDQLVQWLQLTMRTDAVEDLRSPYYLGKKDPRRYKENVNVIIGELSSFIFPRGCMTNVQQDIFIETLVELRQKGKLGQRPAQLESSLRAKSVNGQIKWQRKERKHNSLEGDLTPVRYTVRRESIRSKTSKSKDGLNETDSALVTMINSVIDNKELSLTEKKKQLMNFKKFYPKLYNDFFPGMI	not soluble
MAHHHHHHMGGYIGYNLVYNQQASVSQALWSREDEDVAPVSMPVRPRVALVNMTENLRSCAMGGLRAWLDVADEVELEFPTVTFVEDDEAGAIAGLAAEVRRAALFAWVELKERHEMDAPFGVKPLCCVVFRSITEVDGQALDAWDVQEVELRRWHGKRFVTRHCVGASVDGKRAMVLMHDVEGVIDVGPAAALAGGRVSDCGALVRQYGAPSTASFRRWKLSAEAQSSSTPVQPPAKSLQGLGIRLRDGQRCQLWQSPLHIFAALGAVLRYNRADAAVYPNHITTPVPVSQSASAVSASLWGCVKEWALRCTPTLLHWYTARQAERMERQRQLSSTFVVVVRLAEERAAVTSDVLRVVEEHVAEWMRDMNGASPMKTSLSTANRVCVRDAAARPEELMAAPTIQVDLTDTVCSVIAAEWLLIRLTSLFAALGLEPALAQLVAVPGPQASTSLLYPTPNTAHLRHLWLSRSATTSSSTITDNDAKSPRVTWSGRTTQGEHIAGCAATMPIEAGYVVSEHYFSAF	not soluble
TTIVSVRRNGHVVIAGDGQATLGNTVMKGNVKKVRRLYNDKVIAGFAGGTADAFTLFELFERKLEMHQGHLVKAAVELAKDWRTDRMLRKLEALLAVADETASLIITGNGDVVQPENDLIAIGSGGPYAQAAARALLENTELSAREIAEKALDIAGDICIYTNHFHTIEELSYKAEFHHHHHH	soluble
MGSDKIHHHHHHMTQVDILILSNGPGEVTTWVRPVVRALRQQFGDDRNQVRISVVLSPCSNASGKEAAIALSYPEVDRVQAAEHFWQFLLWGKTIDNWDWRSRGVVVFLGGDQIFPVVIGKKLGYRTVVYAEWEARWHNWIDRFGVMKPEVAARAPHKYAHKFTVVGDLMVEANSHSSLVIGDLSNDKELMTNDIDASTTSHSVGQKTELIGLLPGSKAAKLAQGVPLCLSIAEYVHAKRPQTKFVIPVAPTLDLQTLASFADPQRNSIAEIFGFGGAALIVPEDDRDKALLKTAKGVTVELWQENPAYHLLSQCCICLTTVGANTAELGALGVPMIVLLPTQQLDAMRAWDGLPGLLANLPGVGTPFANTINWLFLRFVRRKGLLAWPNIWAQEEIVPELMGKLQPPEIGEMVVELLAHPEKLADIRAKLRNIRGESGAALKIAQIVCEEMGK	not soluble
GPGSMAIEVATSTRLQYARMLRSMLEMDRTPLDMMILGFQKIAARSETRQTRQARPVTEEEMNEYIRSRTDWKERVVVRLAWMTASRWSEIAALNPNNFKLKPDGALILDWPVVPKTARADPHRAFRFVRIRGQDAFDIIKLCRTLQENEKLTNITNAQVERALAPWDATAHSIERGALRHAAQIVEKYNLDPHVISQLAKHVNPFDLPQNTV	soluble
MKAPSYHVVRGDIATATEGVIINAANSKGQPGGGVCGALYKKFPESFDLQPIEVGKARLVKGAAKHIIHAVGPNFNKVSEVEGDKQLAEAYESIAKIVNDNNYKSVAIPLLSTGIFSGNKDRLTQSLNHLLTALDTTDADVAIYCRDKKWEMTLKEAVARREHHHHHH	soluble
MGSDKIHHHHHHMKILVYGINYSPELTGIGKYTGEMVEWLAAQGHEVRVITAPPYYPQWQVGENYSAWRYKREEGAATVWRCPLYVPKQPSTLKRLLHLGSFAVSSFFPLMAQRRWKPDRIIGVVPTLFCAPGMRLLAKLSGARTVLHIQDYEVDAMLGLGLAGKGKGGKVAQLATAFERSGLHNVDNVSTISRSMMNKAIEKGVAAENVIFFPNWSEIARFQHVADADVDALRNQLDLPDNKKIILYSGNIGEKQGLENVIEAADRLRDEPLIFAIVGQGGGKARLEKMAQQRGLRNMQFFPLQSYDALPALLKMGDCHLVVQKRGAADAVLPSKLTNILAVGGNAVITAEAYTELGQLCETFPGIAVCVEPESVEALVAGIRQALLLPKHNTVAREYAERTLDKENVLRQFINDIRG	not soluble
MDVGKRLKEVREMYGLSQRELAKRVGLTNSTISMIERDAVSPSISSLKKILEGVSLTVTEFFTLEIPTESQVVFKKDTLVDVGSDGVELHLVGTPQPDSKLAFLIERYQPGSSTGKDMITHIGEEAGTVIEGSIEITVAGRSFKLTKGDSYKFSTSLPHKFKNTSKKVCKIISAHTPPSF	not soluble
MGSDKIHHHHHHMKKHKIGIYEKALPKNITWQERLSLAKACGFEFIEMSIDESNDRLSRLNWTKSERIALHQSIIQSGITIPSMCLSAHRRFPFGSKDKKIRQKSFEIMEKAIDLSVNLGIRTIQLAGYDVYYEKQDEETIKYFQEGIEFAVTLAASAQVTLAVEIMDTPFMSSISRWKKWDTIINSPWFTVYPDIGNLSAWNNNIEEELTLGIDKISAIHLKDTYPVTETSKGQFRDVPFGQGCVDFVHFFSLLKKLNYRGAFLIEMWTEKNEEPLLEIIQARKWIVQQMEKAGLLC	not soluble
MKHVPPTVLVWFRNDLRLHDHEPLHRALKSGLAITAVYCYDPRQFAQTHQGFAKTGPWRSNFLQQSVQNLAESLQKVGNKLLVTTGLPEQVIPQIAKQINAKTIYYHREVTQEELDVERNLVKQLTILGIEAKGYWGSTLCHPEDLPFSIQDLPDLFTKFRKDIEKKKISIRPCFFAPSQLLPSPNIKLELTAPPPEFFPQINFDHRSVLAFQGGETAGLARLQDYFWHGDRLKDYKETRNGMVGADYSSKFSPWLALGCLSPRFIYQEVKRYEQERVSNDSTHWLIFELLWRDFFRFVAQKYGNKLFNRGGLLNKNFPWQEDQVRFELWRSGQTGYPLVDANMRELNLTGFMSNRGRQNVASFLCKNLGIDWRWGAEWFESCLIDYDVCSNWGNWNYTAGIGNDARDFRYFNIPKQSQQYDPQGTYLRHWLPELKNLPGDKIHQPWLLSATEQKQWGVQLGVDYPRPCVNFHQSVEARRKIEQMGVIA	soluble
YQPNYFLSIPITNKKITAGIKVLQNSILRQDNRLTKAMVGDGSFHITLLVMQLLNEDEVNIGTDALLELKPFVEEILEGKHLTLPFHGIGTFQGQVGFVKLADGDHVSALLEIAETAKRTFQEKGILAGESRTFKPHLTFMKLSKAPMLWKKGVRKIEPGLYEQFIDHRFGEEILYQIDLCSMLKKKQSNGYYHCESSIVIGEKD	soluble
MSLGMTHSFITEWDNTPKTKMRFSREVSFAELQRVTNCMAKHEIPSIEDFIWVLKEAAKVLSTLPNNVHVIPEPNDRLIFVGDLHGCFETLIRLFLGYPQQNIPRTGFPGEIVDGRRLVYFFNGDFVDRGGSGYQIVFLLAYMAIACPGSCYLNRGNHESEMFGLSTQGMLGNKFMSEMAGKFSGMDPETYRPAIGEFFCALPIAHTIDRNIFMVHGGVPLGDDLSNVPRAAPQSYFSTGSPAPIPKGLKPYKISNLDNLTPSRQKTTNFEDNPRKQNELWHSFVWNYDRLPYSADFMEENNFKTMVHSHTATPFHQITSFLPLEKTSGEKYSIQSVIKNQEMFDRMKAFFASHQLANSSKLSILEIFSSPTEGHHHHHH	not soluble
